The record followed here is the nanobody polyreactivity screen of Harvey et al. (2022).

This data set can be described thus: yeast display, Sf9 membrane polyspecificity reagent, FACS + sequencing; frameworks hold sequencing errors. In outline:
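In a synthetic yeast display library (Saccharomyces cerevisiae BJ5465), nanobody expression was induced with galactose for 36–48 hours. FACS gates were set low and high (top ~1%) using anti-HA fluorescence for expression and streptavidin fluorescence for binding of the Sf9 membrane reagent. Each polyreactivity label is drawn from the gate of origin.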
In the case of “QVQLVESGGGLVQAGGSLRLSCAASGSIFYFNDMGWYRQAPGKEREFVARITRSGSSTSYADSVKGRFTISRDNAKNTVYLQMNSLKPEDTAVYYCAARYRRYSTSRYYYWGQGTQVTVSS”, the “polyreactivity (PSR sort gate)” value is listed as “high polyreactivity”.

As to “QVQLVESGGGLVQAGGSLRLSCAASGSIFYFYAMGWYRQAPGKERELVAAISFSGTRTYYADSVKGRFTISRDNAKNTVYLQRNSLKPEDTAVYYCNAVAYNYPRTYDYWGPGTQVTVSS”, the “polyreactivity (PSR sort gate)” value is listed as “high polyreactivity”.

On to “QVQLVESGGGLVQAGGSLRLSCAASGSIFYFYAMGWYRQAPGKERELVAAISRSVGSTNYADSVKGRFTISRDNAKNTVYLQMNSLKPEDTAVYYCAARRYGAYYWGQGTQVTVSS”, for which the “polyreactivity (PSR sort gate)” value is recorded as “high polyreactivity”.

Consider “QVQLVESGGGLVQAGGSLRLSCAASGSIFYFYAMGWYRQAPGKERELVAAITSGGSTYYADSVEGRFTISRDNAKNTVYLQMNSLKPEDTAVYYCNAVSSYGYDYWGQGTQVTVSS”, for which the “polyreactivity (PSR sort gate)” value is “high polyreactivity”.

Consider “QVQLVESGGGLVQAGGSLRLSCAASGSIFYFYDMGWYRQAPGKERELVAAISLDDGGTYYADSVKGRFTISRDNAKNTVYLQMNSLKPEDTAVYYCAADYYYWYQIYDYWGQGTQVTVSS”, for which the “polyreactivity (PSR sort gate)” value is “high polyreactivity”.

As for “QVQLVESGGGLVQAGGSLRLSCAASGSIFYFYTMGWYRQAPGKERELVASITYSGGRTYYADSVKGRFTISRDNAKNSVYLQMNSLKPEDTAVYYCAVRGYRRYWGQGTQVTVSS”, the “polyreactivity (PSR sort gate)” value is on record as “high polyreactivity”.

“QVQLVESGGGLVQAGGSLRLSCAASGSIFYGNAMGWYRQAPGKERELVAAISKRGGSTYYADSVKGRFTISRDNAKNTVYLQMNSLIPEDTAVYYCDKGSAGHTEYYYWGQGTQVTVSS”: the “polyreactivity (PSR sort gate)” value is reported as “high polyreactivity”.

Consider “QVQLVESGGGLVQAGGSLRLSCAASGSIFYGNAMGWYRQAPGKERELVAAISYRGVRTYYADSVKGRFTISRDNAKNTVYLQMNSLKPEDTAVYYCAATQGYRREYDYWGQGTQVTVSS”, for which the “polyreactivity (PSR sort gate)” value is given as “high polyreactivity”.

“QVQLVESGGGLVQAGGSLRLSCAASGSIFYGNTMGWYRQAPGKERELVAAIDYRGDSTYYADSVKGRFTISRDNAKNTVYLQMNSLKPEDTAVYYCAADQTPFGQVYYGTLSIRDYWGQGTQVTVSS”: the “polyreactivity (PSR sort gate)” value is “low polyreactivity”.

With “QVQLVESGGGLVQAGGSLRLSCAASGSIFYGNTMGWYRQAPGKERELVAAISSGGGSTYYADSVKGRFTISRDNAKNTFYSKMNSMKPEETAVYYCAKRTYKQASGYWYDSWGQGTKVTVSS”, the “polyreactivity (PSR sort gate)” value was “high polyreactivity”.

As to “QVQLVESGGGLVQAGGSLRLSCAASGSIFYGYAMGWYRPAPGKERELVAAINWSGGGTYYADSVKGRFTISRDNAKNTVYLQMNSLKPEDTAVYYCAAGHVVRRPYLIYDYWGQGTQVTVSS”, the “polyreactivity (PSR sort gate)” value is “high polyreactivity”.

“QVQLVESGGGLVQAGGSLRLSCAASGSIFYGYAMGWYRQAPGKERELVAAINWSGGGTYYADSVKGRFTISRDNAKNTVYLQMNSLKPEDTAVYYCAAGHVVRRPYLIYDYWGQGTQVTVSS”: the “polyreactivity (PSR sort gate)” value is listed as “high polyreactivity”.

Take “QVQLVESGGGLVQAGGSLRLSCAASGSIFYGYAMGWYRQAPGKERELVAAITSGGRTYYADSVKGRFTISRDNAKNTVYLQMNSLKPEDTAVYYCNKLNYWSVRYEYWGQGTQVTVSS”: the “polyreactivity (PSR sort gate)” value is “high polyreactivity”.

Turning to “QVQLVESGGGLVQAGGSLRLSCAASGSIFYGYAMGWYRQAPGKERELVARITGSGGDTSYADSVKGRFTISRDNAKNTVYLQMNSLKPEDTAVYYCAKRGYHFLTKYDYWGQGTQVTVSS”, the “polyreactivity (PSR sort gate)” value is “low polyreactivity”.

On to “QVQLVESGGGLVQAGGSLRLSCAASGSIFYGYAMGWYRQAPGRERELVAAIRYRGGRTDYGDSVKGRFTISRDNAKKTVYLQMNSLKPEDTAVYYCAKDLIRYGYLTYVYWGQGTQVTVSS”, for which the “polyreactivity (PSR sort gate)” value is “high polyreactivity”.

With “QVQLVESGGGLVQAGGSLRLSCAASGSIFYGYAMGWYRQAPRKERELVAAISSSGGSTYYADSVKGRFTISRDTAKNTVYLQMNSLKPEDTAVSYCARSRSYWGIVYGRYDYWGQGTQVTVSS”, the “polyreactivity (PSR sort gate)” value is reported as “high polyreactivity”.

For the sequence “QVQLVESGGGLVQAGGSLRLSCAASGSIFYGYDMGWYRQAPGKERELVATISWSSGSSTYYADSVKGRFTISRDNAKNTVYLQMNSLKPEDTAVYYCAVDFAIGYRYLGRVDYWGQGTQVTVSS”, the “polyreactivity (PSR sort gate)” value is given as “low polyreactivity”.

On to “QVQLVESGGGLVQAGGSLRLSCAASGSIFYGYDMGWYRQAPGKERELVATISWSSGSSTYYADSVKGRFTISRDNAKNTVYLQMNSLKPEYTAVYYCAVDFAIGYRYLGRVDYWGQGTQVTVSS”, for which the “polyreactivity (PSR sort gate)” value is on record as “low polyreactivity”.

Take “QVQLVESGGGLVQAGGSLRLSCAASGSIFYGYVMGWYRQARGKERELVAAITRSGSTYYADSVKGRFTISRDNAKNTVYLQMNSLKPEDTAVYYCAAAAKRKYYWGQGNQVTVSS”: the “polyreactivity (PSR sort gate)” value is given as “high polyreactivity”.

For “QVQLVESGGGLVQAGGSLRLSCAASGSIFYHNAMGWYRQAPGKERELVAAITWSGSTTYYADSVKGRFTISRDNAKKTVYLQMNSLKPEDTAVYYCNAGHRHGHYDYWGQGTQVTVSS”, the “polyreactivity (PSR sort gate)” value is recorded as “low polyreactivity”.

“QVQLVESGGGLVQAGGSLRLSCAASGSIFYHYAMGWYRQAPGKERELVAAISSGGSTSYADSVKGRFTFSRDNAKNTVYLQMNSLKPEDTAVYYCNARRIRSRSWKYDYWGQGTQVTVSS”: the “polyreactivity (PSR sort gate)” value is “low polyreactivity”.

“QVQLVESGGGLVQAGGSLRLSCAASGSIFYIYAMGWYRKAPGKERELVASIDSGDSTNYADSVKGRFTISRDNAKNTVYLQMNSLKPEDTAVYYCNADTYSEITYYLYIGMDYWGQGTQVTVSS”: the “polyreactivity (PSR sort gate)” value was “low polyreactivity”.

“QVQLVESGGGLVQAGGSLRLSCAASGSIFYIYAMGWYRPAPGKEREFVAAITWTGGSTYYADSVKGRFTISRDNAKNTVYLQMNSLKPEDTAVYYCARATVGAWRKMYSWGQGTQVTVSS”: the “polyreactivity (PSR sort gate)” value is on record as “high polyreactivity”.

In the case of “QVQLVESGGGLVQAGGSLRLSCAASGSIFYIYAMGWYRQAPGKEREFVAAISWIGGSTYYADSVKGRFTISRDNAKNTVYLQMNSLKPEDTAVYYCAAETFTDYDYWGQGTQVTVSS”, the “polyreactivity (PSR sort gate)” value is “high polyreactivity”.

For the sequence “QVQLVESGGGLVQAGGSLRLSCAASGSIFYIYAMGWYRQAPGKERELVAGIRNGGSTKYADSVKGRFTISRDNAKNTVYLQMNSLKPEDTAVYYCAARYYRPYTSSWAHNYRLDDWGQGSQVTVSS”, the “polyreactivity (PSR sort gate)” value is given as “high polyreactivity”.

As for “QVQLVESGGGLVQAGGSLRLSCAASGSIFYIYVMGWYRQAPGKERELVAAISSGGTTNYADSVKGRFTISRDNAKNTVYLQMNSLIPEDTAVYYCAADVLIARYPGYSYEYWGQGTQVTVSS”, the “polyreactivity (PSR sort gate)” value is listed as “low polyreactivity”.

Turning to “QVQLVESGGGLVQAGGSLRLSCAASGSIFYKNAMGWYRQAPGKERELVAAISYSGGSTYYADSVKGRFTISRDNAKNTVYLQMNSLKPEDTAVYYCAAKGGAWGQGTQVTVSS”, the “polyreactivity (PSR sort gate)” value is “high polyreactivity”.

On to “QVQLVESGGGLVQAGGSLRLSCAASGSIFYLNAMGWYRPAPGKERELVAAIRWSGGSTRYADSVKGRFTISRDNAKITVYLQLNSLKPEDTAVYSCAADTYVYTLGRYYYWGQGTQVTVSS”, for which the “polyreactivity (PSR sort gate)” value is on record as “high polyreactivity”.

Take “QVQLVESGGGLVQAGGSLRLSCAASGSIFYLNAMGWYRQAPGKERELDAAIRWSGGSTRYADSVKGRFTISRDNAKNTVYLQMNSLKPEDTAVYYCAKYNPVLVYHWWYYYWGQGTQVTVSS”: the “polyreactivity (PSR sort gate)” value is listed as “high polyreactivity”.

As for “QVQLVESGGGLVQAGGSLRLSCAASGSIFYLYAMGWYRPAPGKERELVAAISRSGASTYYADSVKGRFTISRDNAKNTVYLQMNSLKPEDTAVYYCAAYKIWGRVRYDYWGQGTQVTVSS”, the “polyreactivity (PSR sort gate)” value was “low polyreactivity”.

Regarding “QVQLVESGGGLVQAGGSLRLSCAASGSIFYLYAMGWYRQAPGKESELVAAITSGDSTTYADSVKWRFTISRDYAKNTVYLQMNSLKPEDTAVYYCAADWPGLVGYHNSAENDYWGQGTQVTVSS”, the “polyreactivity (PSR sort gate)” value is listed as “low polyreactivity”.

Turning to “QVQLVESGGGLVQAGGSLRLSCAASGSIFYNAMGWYRQAPGKERELVAAISYRGGRTYYADSVKGRFTISRDNAKNTVYLQMNSLKPEDTAVYYCAADSTVGRYPYDYWGPGTQVTVSS”, the “polyreactivity (PSR sort gate)” value is on record as “high polyreactivity”.

Consider “QVQLVESGGGLVQAGGSLRLSCAASGSIFYNNAMGWYRQAPGKERELVATISDGGGSTYYADSVKGRFTISRDNAKNTVYLQMNSLKPEDTAVYYCAAPYYWGQGTQVTVSS”, for which the “polyreactivity (PSR sort gate)” value is “low polyreactivity”.

Turning to “QVQLVESGGGLVQAGGSLRLSCAASGSIFYNNVMGWYRQAPGKERELVAVISGGGSTNYADSVKGRFTISRDNAKNNVYLHMNSLKREDTAVYYCAARGRYSYGDRYEYWGQATQVTVSS”, the “polyreactivity (PSR sort gate)” value is “low polyreactivity”.

With “QVQLVESGGGLVQAGGSLRLSCAASGSIFYNTMGWYRQAPGKERELVAAITSGGSTYYADSVKGRFTISRDNAKNTVYLQMNSLKPEDTAVYYCAAESYYCGYQWLYFEYGYWGQGTQVTVSS”, the “polyreactivity (PSR sort gate)” value is given as “low polyreactivity”.

With “QVQLVESGGGLVQAGGSLRLSCAASGSIFYPNAMGWYRQAPGKERELVAAITVGGGRTYYADSVKGRFTISRDNAKNTVYLQMNSLKPEDTAVYYCAAQEIVRYPRFDKYDYWGQGTQVTVSS”, the “polyreactivity (PSR sort gate)” value is “low polyreactivity”.

Turning to “QVQLVESGGGLVQAGGSLRLSCAASGSIFYPNAMGWYRQAPGKERELVATIRRRGGSTYYADSVKGRFTISRDNAKNTVYLQMHSLKPEDTAVDYCAVGSPTPYRALDLYDYWGQGTQVTVSS”, the “polyreactivity (PSR sort gate)” value is given as “high polyreactivity”.

As to “QVQLVESGGGLVQAGGSLRLSCAASGSIFYPNAMRWYRQAPGKQRELVAVITGGATTYYADSVKGRFTISRDYAKNTVYLQRNSLNPEDTAVDYCAADSAENVYRGYDWGQGTQVTVSS”, the “polyreactivity (PSR sort gate)” value is on record as “low polyreactivity”.

“QVQLVESGGGLVQAGGSLRLSCAASGSIFYPNVMGWDRQAPGKERELVAAIRTSGGSTYYADSVKGRFTISRDNAKNTVYLQMNSLKPEDTAVYYCAADYIYVKYEYWGQGTQVTVSS”: the “polyreactivity (PSR sort gate)” value is given as “high polyreactivity”.

As to “QVQLVESGGGLVQAGGSLRLSCAASGSIFYPNVMGWYRQAPGKERELVATISWSGGNTYYADSVKGRFTISRDNAKNTVYLQMNSLKPEDTAVYYCAADQWSQDYDYWGQGTQVTVSS”, the “polyreactivity (PSR sort gate)” value is listed as “low polyreactivity”.

Take “QVQLVESGGGLVQAGGSLRLSCAASGSIFYPYAMGWYRQANGKERELDAAITWRGGRTYYADSVKGRFTISRDNAKNTVYLQMNSLKPEDTAVYYCAAGWLTRSYEYDYWGQGTQVTVSS”: the “polyreactivity (PSR sort gate)” value is reported as “high polyreactivity”.
